{"source": "patent US20110052599A1", "biological_target": "TrkB receptor expressed in mouse oocytes (mouse) (UniProt P15209)", "experiment": "cell-based or functional assay", "data": [{"substance": "recombinant human BDNF (Pepro-Tech, Rocky Hill, N.J.) (from UniProt P23560 19-247) (ligand)", "values": [{"measurement": "proportion of MII oocytes that developed into blastocyst-stage embryos", "value": 5, "unit": "fold"}, {"measurement": "proportion of MII oocytes that developed into two-cell stage embryos", "value": 2, "unit": "fold"}, {"measurement": "proportion of oocytes showing first polar body extrusion (MII-stage oocytes), 3 ng/ml BDNF with 5% FBS", "value": "> 2", "unit": "fold"}]}]}
